The nanobody polyreactivity screen of Harvey et al. (2022)

Test: yeast display, Sf9 membrane polyspecificity reagent, FACS + sequencing; frameworks hold sequencing errors
In short: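 Nanobodies from a synthetic yeast display library (Saccharomyces cerevisiae BJ5465), induced 36–48 hours with galactose, were stained 1 hour at 4 °C with 10% biotinylated, detergent-solubilized Sf9 membrane reagent, enriched on streptavidin microbeads, then FACS-sorted. Anti-HA (expression) and streptavidin (reagent binding) fluorescence set low and high (top ~1%) gates. Polyreactivity labels come from the gate of origin. Genes were colony-PCR amplified, MiSeq 2 × 250 sequenced and filtered by CDR length.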
In the case of “QVQIVESGGGLDQAGGSLRLSCAATGSTFYWNAMGWYRQAPWKERELVAAISSGGSTYYADSVKGRFTISRDNAKNTVYVQMNSLKPEDTAVYYCAAEWYPYPWGYGYWGQGTQVTVSS”, the “polyreactivity (PSR sort gate)” value is reported as “low polyreactivity”. With “QVQLVESGGGLVQAGGSLRLSCAASGNTFSVYAMGWYRQAPGKERELVAGITTSGGSTYYADSVKGRFTISRDNAKNTVYLQMNSLKPEDTAVYYCATDISTSYYYQYSSFYQYDSWGQGTQVTVSS” the “polyreactivity (PSR sort gate)” value was “low polyreactivity”. In the case of “QVHLVESGGCLVQAGGSLRLSCAASGFIFPWYAMGWYRQAPGKERELVAAISSSGGRTYYADSVKGRFTISRDNAKNTVYLQMNSLKPEDTGVYYCNVAYGLSQVYRYNYWGQGSQVTVSS”, the “polyreactivity (PSR sort gate)” value is reported as “high polyreactivity”. For “QVQLVESGGGLVQAGGSLRLSCAAYGRTSRRNAMGWYRQAPGKERELVAAINRTGGTTYYADYVKGRFTISRDNAKNTVYLQMNSLKPVVNAVYYCAAGAPLSTPRGTTYRYYYWGQGTQVTVSS”, the “polyreactivity (PSR sort gate)” value was “high polyreactivity”. In the case of “QVQLVESGGGLVQAGGSLRLSCAASASIFILNAMGWYRPAPGKERELVAAISWSGGRTNYADSVKGRFTISRDTAKNTVYLHMNSLKPEETAVYFCAARVTPYRGFYYWGQGTQVTVSS”, the “polyreactivity (PSR sort gate)” value is reported as “high polyreactivity”. For “QVQLVESGGGLVQAGGSLRLSCAASGRTFLLYAMGWYRPAPGKERELVAAIRSSTVSTYYADSVKGRFTISRDNAKNTVYLQMNSLKPEDTAVYYCAASRPKYGPSGVRYNYWGQGTQVTVSS”, the “polyreactivity (PSR sort gate)” value was “high polyreactivity”. For “QVQLVESGGGLVQAGGSLRLSCAASGFIFVYNAMGWYRQAPGKERELVAAIDYGGGSTTYADSVKGRFTISRDNAKNTVYLQMNSLKPEDTAVYYCAAYYRYLDDIYEYEYWGQGTQVTVSS”, the “polyreactivity (PSR sort gate)” value was “low polyreactivity”. For “QVQLVESGGGLVQAGGSLRLSCAASASTFSTYAMGSYRQAPGKERELVAAISWSGGSTNYADSVKGRLTISRDIAKYTVYLQMNSLKPEDTAVYYCGARWTSRYDYWGQGTQVTVSS”, the “polyreactivity (PSR sort gate)” value was “high polyreactivity”. For “QVQLVESGGGLVQAGGSLRLSCADSGITFWTNTMGWYRQAPGKERELVAVITSGGTTNYADSVKGRFTISRDNAKNTVYLQMNSLKPEDTAVYYCAKKYGYFGLHGYWGQGTQVTVSS”, the “polyreactivity (PSR sort gate)” value was “high polyreactivity”. In the case of “QVQLVESGGGLVQAGGSLRLSCAASRSTFSDNAMGWYRQAPGKERELVAAISRSGGSTYYADSVKGRFTISRDTAKNTVYLQMNSLKPEDTAVYYCATKRVLTGYDSWGQGTQVTVSS”, the “polyreactivity (PSR sort gate)” value is reported as “high polyreactivity”. For “HVELVEAGGGVVQAGGSLRLSCAASGRIFRYYVMGWYRPAPGKEREFVASISGRGASTYYADSVKGRFTISRDNAKNTVYIKRNSLKPEDTAVYYCNADVWLLSYVPEYDYWGQGTQVTVSS”, the “polyreactivity (PSR sort gate)” value was “low polyreactivity”. In the case of “QVQLVESGGGLVQAGGSLRLSCAASGSTFRRNAMGWYRQAPGKERELVAAITSTDSTYYADSVKGRFTISRDNAKNTVYLQMNSLKPEDTAVYYCAKGYWWGGEMGYWGQGSQVTVSS”, the “polyreactivity (PSR sort gate)” value is reported as “low polyreactivity”. In the case of “QVQLQESGGGQVQAGGSLRLSCAASGYISTHYFMGWYRQATGKDREFVAGISNGSITNYADSVKGRFTISRDNARNTVYLQMNSLKPEDTAVYYGAAYEWTYVRFGYWGQGTQVTVSG”, the “polyreactivity (PSR sort gate)” value is reported as “high polyreactivity”. For “QDQLVESGGGLVQAGGSLRLSCAATGRIFVYYAMGWSRQAPGKERELVATISSGGSTYYADSVKGRFTISRDNAKNTVYLQMNSLKPDDTAVYYCAADNVNLYLAYYYKGDYWGQGTQVTVSS”, the “polyreactivity (PSR sort gate)” value was “low polyreactivity”. For “QVQLVESGGGLVQAGGSLRLSSAASGRTFTVNAMGSYRQAPGKERELVAAISQRGASTYYADSVKGRFTISRDNAKNTVYLQMNSLKPVDTAVYYCAAHLRYKYDYWGQGTQVTVSS”, the “polyreactivity (PSR sort gate)” value was “high polyreactivity”. With “QVQLEESGGGLVQAGGSLRLSCAASGSTFPYYAMGWYRQAPGKERELVAVITSSGSRTYYADSVKGRFTISRDNAKNTVYLQMNSLKPEDTAVYYCARDTRYYRPNRSQYDYWGQGTQVTVSS” the “polyreactivity (PSR sort gate)” value was “high polyreactivity”. With “QVQLVESDGGLVQAGGSLRLSCAASGSTFNVYAMGWNRQAPGKERELVAAITSGGSTYYADSVKGRFTISRDNANNTVYLQMISQKPEDTAVYYCADDVSLSVFKLDYWGQGTQLTVSS” the “polyreactivity (PSR sort gate)” value was “low polyreactivity”. For “QVQLVESGGGLVQAGGSLRLSCAASGRTFGRYALGWYRQAPGKERELVATITSGGSTNYADSVKGRFTISRDNAKNTVYLQMNSLKPEDTAVYYCAAEFSPSRWAYSEGALRYNYWGQGTQVTVSS”, the “polyreactivity (PSR sort gate)” value was “low polyreactivity”. In the case of “QVQLVESGGGLVQAGGSLRLSCAATGIKFDGYAMGWYRQEPRKERELVAGITIGDITYYADSVKGRFTISRDNAKNTVYLQMNSLKPEDTAVYYCADDCYYYQTAYDYWGQGTQVTVSS”, the “polyreactivity (PSR sort gate)” value is reported as “low polyreactivity”. With “QVQLVESGGGLVQGGGSLRLSFAGSGFTFGRYLMGWYSQAPGKERELVAAISRSGGSTHYADSVKGRFTISRDYAMNHFYLQMNSLKPEDTAVYYCAAASPRWPGQGDYWGQGTQVTVSS” the “polyreactivity (PSR sort gate)” value was “high polyreactivity”. In the case of “QVQLVESGGGLVQAGGSLRLSCAASGSTFHDYAMGWYRQAPGKEREFVAAISVRGGSTYYADSVKGRFTISRDNAKNTVYLQMNSLKPEDTAVYYCNKLSSDSYNYWGQGTQVTVSS”, the “polyreactivity (PSR sort gate)” value is reported as “high polyreactivity”. In the case of “QVQLVESGGGLVQAGGSLRLSCAASGSIFSGYTMGWYRQAPGKERELVAGISYRGGSTYYADSVKGRFTISRDNAKNTVYLQMNSLKPEDTAVYYCAALYYRRGSLNYEYWGQGTQVTVSS”, the “polyreactivity (PSR sort gate)” value is reported as “high polyreactivity”.
